Measured values as given in patent US20250066490A1, “ANTI-CD70 ANTIBODIES, CONJUGATES THEREOF AND METHODS OF USING THE SAME” (ProfoundBio US Co., priority 2021, published 2025).

Assays:
Caki-1 cells = test: Internalization by FACS immune-fluorescence staining, Caki-1; format: cell-based, human; conditions: Caki-1, based on the cell binding affinity
Experimental: (§1) Briefly, 2×10^5 cells were harvested from a tissue culture flask by treatment with 0.25% Trypsin/EDTA and then incubated with 10 μg/ml of the lead antibodies or control antibodies in FACS buffer (1×PBS with 0.1% BSA) for 30 mins at 4° C. The cells were washed at 4° C. to remove unbound antibodies and kept on ice or shifted to 37° C. At the set time points (0 h, 4 h, 24 h), cells were incubated with PE-conjugated anti human Fc (Abcam, Ab98596) for 30 mins at 4° C. and then analyzed by flow cytometry. The internalization ratio was calculated by subtracting the 37° C. MFI from the 4° C. MFI, and then compared with 4° C. MFI.
(§2) Four cell lines ([…]), Caki-1, Raji, MCF-7) were utilized in the internalization assay. Target (CD70) copy numbers were determined via the QIFIKIT (DAKO, K0078). Briefly, cells were labeled with a primary mouse monoclonal antibody against CD70. Cells, Set-up beads, Calibration beads (from the kit) were then labeled in parallel with a fluorescein-conjugated anti-mouse secondary antibody. The fluorescence is correlated with the number of bound primary antibody molecules on the cells and on the beads. Samples were subsequently analyzed on the flow cytometer and copy number determined based on the calibration curve (Table 11). For internalization assay, 3×10^5 cells were incubated at 4° C. for 30 min with 10 µg/ml 2E7 in FACS buffer (1×PBS containing 0.1% BSA). Cells were washed at 4° C. to remove unbound material and kept on ice or shifted to 37° C. for different lengths of time. At progressive timepoints ([…], 0.5, 1, 2, 3, 4 hr) cells were stained with PE-conjugated anti-human Fc for 30 min at 4° C. and analyzed by flow cytometry. Internalization rate were calculated by subtracting the mean fluorescence intensity (MFI) of cell surface-bound antibody at 37° C. at each time point from the MFI of cell surface-bound antibody at 4° C. at time 0, then divided by the MFI of the cell surface-bound antibody at 4° C. at time 0.

[1] = system: 786-O, Caki-1, U251 and DBTRG-05MG cells; test: Antibody binding by flow cytometry, statements across all four tumor cell lines; set-up: species or system human; conditions: four cell lines
Experimental: The lead antibodies were tested for binding to renal carcinoma cells and glioblastoma cells expressing CD70 on the cell surface by flow cytometry. Cell lines 786-O (ATCC® CRL-1932™, provided by COBIOER), Caki-1 (ATCC® HTB-46™, provided by COBIOER), U251 and DBTRG-05MG (ATCC® CRL-2020™, provided by COBIOER) were each tested for antibody binding. 786-O cells were cultured with RPMI 1640 medium (Gibco, Cat #11875093) containing of 10% FBS (Gibco, Cat #10099141) while Caki-1 cells were cultured with McCoy's 5a Modified medium (Gibco, Cat #16600082) containing 10% FBS. U251 cells were cultured with MEM medium containing of 10% FBS and 1% NEAA+1 mM sodium pyruvate. DBTRG-05MG cells were cultured with DMEM medium (Gibco, Cat #C11995500BT) containing of 10% FBS. Each of the lead antibodies and the controls were incubated for 30 mins with the different cell lines (3×10^5 cells per well) in 0.2 ml FACS buffer (1×PBS with 0.1% BSA) at 4° C. Then, the cells were pelleted, washed, and incubated at 4° C. for 30 mins with 100 μl of 1:200 diluted PE-conjugated anti human Fc (Abcam, Ab98596) in FACS buffer. The cells were pelleted again, washed with PBS, resuspended in FACS buffer and analyzed by flow cytometer (Beckman, CytoFLEX).

CD70 ECD = molecular target: T1, CD70 ECD (Homo sapiens, UniProt P32970); test: Biacore affinity measurement on immobilized CD70 ECD; format: binding; conditions: 25° C., CD70 immobilized
T1 sequence (P32970 39-193 limits assumed): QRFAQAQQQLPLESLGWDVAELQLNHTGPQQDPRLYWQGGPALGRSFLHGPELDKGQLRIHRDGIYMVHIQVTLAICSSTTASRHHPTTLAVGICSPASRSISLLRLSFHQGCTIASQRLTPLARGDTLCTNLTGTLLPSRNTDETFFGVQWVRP
Experimental: The immobilization of antigen CD70 ECD was performed at 25° C. with HBS-EP as the running buffer. Sensor chip surface of flow cells 1, 4 were activated by freshly mixed 50 mmol/L N-Hydroxy succinimide (NHS) and 200 mmol/L 1-ethyl-3-(3-dimethylaminopropyl) carbodiimide hydrochloride (EDC) for 420s (10 μL/min). Afterwards, CD70 antigen diluted in 10 mmol/L NaAC (pH 4.5) was injected into flow cell 4 to achieve conjugation of the appropriate Response Unit, while flow cell 1 was set as a blank. After the amine coupling reaction, the remaining active coupling sites on chip surface were blocked by 420s injection of 1 mol/L ethanolamine hydrochloride.
The assay was performed at 25° C. and the running buffer was HBS-EP. Diluted antibodies were injected over the surface of flow cells 1 and 4 during the association phase, followed by injecting running buffer as the dissociation phase. All the data were processed using Biacore T200 Evaluation software version 3.1. Flow cell 1 and a blank injection of buffer in each cycle were used as a double reference for Response Units subtraction. Kinetic data of the interaction between the antibodies and CD70 antigen were obtained through affinity measurement.

[2] = Hydrophobic interaction chromatography (HIC); format: physicochemical; conditions: full IgG; for Retention time: hydrophobicity by HIC
Experimental: Antibodies were purified from cleared cell culture supernatants using Protein A chromatography (Protein A resin slurry, 4.5 mL, Bogen, Cat #18-0010-02). Briefly, supernatants were prepared for affinity chromatography and loaded onto the columns and allowed to flow completely through the resin. The columns were washed with binding buffer containing 0.15M NaCl and 0.2M PB, PH7.0. Antibody was eluted with elution buffer containing 0.15M NaCl, 0.1M Glycine and 0.2M PB, PH 3.0. Fractions were collected and neutralized by the addition of 1/10 volume of 1M Tris, PH9.0. The fractions were dialyzed for 2 hours against 1×PBS. Purified antibody was quantified by absorbance at A280. Samples from each step of the protein A chromatography were applied onto 12% SDS-PAGE gels for reduced and non-reduced electrophoresis. The hydrophobicity was assessed with hydrophobic interaction chromatography (HIC) on a TSK gel Butyl-NPR, 4.6×100 mm with Butyl-NPR (Tosoh corporation) using a Waters HPLC 2695 system.

786-O cells = test: Internalization by FACS immune-fluorescence staining, 786-O; format: cell-based, human; conditions: based on the cell binding affinity
Experimental: as §1, §2

[3] = system: cynomolgus CD70 recombinant protein; test: Antibody binding ELISA, cynomolgus CD70; conditions: full IgG, FIG. 3
Experimental: The binding specificity of the CD70 antibodies was tested by ELISA according to a standard protocol. Briefly, 96-well micro-plates were coated with 2 μg/ml of human or cynomolgus CD70 recombinant protein in PBS at 100 μl per well and incubated overnight at 4° C. The plates were washed twice with TBS+0.5% Tween20. 200 μL of blocking buffer (2% BSA in PBS) was added to each well, and the plates were incubated at 37° C. for 2 hours. The plates were washed using the wash buffer mentioned above. Serially diluted antibodies were added to the ELISA plates using 100 μl per well, and the plates were incubated for 1 hour at room temperature. Then plates were washed 3 times. HRP conjugated anti-human Fc antibody solution (Sigma, I18885-2ML, diluted with blocking buffer) was added to the plates using 100 μl per well. The plates were incubated at room temperature for 1 hour and then washed 3 times. Then the TMB solution was added to plates using 100 μl per well and the plates were placed at RT for 5-15 mins. Then the stop solution (2M H2SO4) was added using 50 μl per well. The absorbance was measured at A450 and A630.

B1: 1H8: anti-CD70 antibody clone, VH SEQ 5 and VL SEQ 6; scFv and full human IgG1/kappa (antibody, V domains shown)
VH: QVQLQESGPGLVKPSETLSLTCTVSGGSVSSDYYYWSWIRQPPGKGLEWLGYIYYSGSTNYNPSLKSRVTISVDTSKNQFSLKLRSVTTADTAVYYCARGDGDFMGVCFDYWGQGTLVTVSS
VL: EIVLTQSPATLSLSPGERATLSCRASQSVSSYLAWYQQKPGQAPRLLIFDASNRATGIPARFSGSGSGTDFTLTISSLEPEDFAVYYCQQRSNWPLTFGGGTKVEIK
Q: With B1 as the molecule, how does the “absolute amount of antibody internalized into cell vs parent antibody 69A7” value (shortened to “absolute amount … vs parent antibody 69A7”) (Caki-1 cells) read?
A: higher absolute amount of antibody internalized into cell than the parent antibody 69A7

Q: What about the “binding ability to the cell lines compared with antibody 69A7” value [1] of the same molecule?
A: slightly higher binding ability to the cell lines than that of antibody 69A7

Q: And the “Rmax (RU)” value (CD70 ECD)?
A: 38.81 RU

Q: What about the “ka” value (CD70 ECD) of the same molecule?
A: 25600 M⁻¹ s⁻¹

Q: What about the “kd” value (CD70 ECD) of the same molecule?
A: 0.00112 s⁻¹

Q: What about the “hydrophobicity compared with the parent antibody 69A7” value ([2]; HIC) of the same molecule?
A: slightly more hydrophobic than the parent antibody 69A7

Q: What about the “Retention time” value [2] of the same molecule?
A: 10.24 min

Q: And the “absolute amount … vs parent antibody 69A7” value (786-O cells)?
A: higher absolute amount of antibody internalized into cell than the parent antibody 69A7

Q: What about the “cross binding activity to the cyno-antigen” value [3] of the same molecule?
A: better cross binding activity to the cyno-antigen than antibody 69A7

B2: 2D2: anti-CD70 antibody clone, VH SEQ 9 and VL SEQ 10; scFv and full human IgG1/kappa (antibody, V domains shown)
VH: QVQLQESGPGLVKPSETLSLTCTVSGGSVSSDYYYWSWIRQPPGKGLEWLGYIYYSGSTNYNPSLKSRVTISVDTSKNQFSLKLRSVTTADTAVYYCARGDGDYGGNCFDYWGQGTLVTVSS
VL: EIVLTQSPATLSLSPGERATLSCRASQSVSSYLAWYQQKPGQAPRLLIFDASNRATGIPARFSGSGSGTDFTLTISSLEPEDFAVYYCQQRLKFPLTFGGGTKVEIK
modifications: left off: another chain or arm of the molecule; large carriers; small tags and cut ends
notes: scFv and full human IgG1/kappa
Q: For B2, which “absolute amount … vs parent antibody 69A7” value (Caki-1 cells) is on record?
A: higher absolute amount of antibody internalized into cell than the parent antibody 69A7

Q: What about the “binding ability to the cell lines compared with antibody 69A7” value [1] of the same molecule?
A: slightly higher binding ability to the cell lines than that of antibody 69A7

Q: And the “Rmax (RU)” value (CD70 ECD)?
A: 38.83 RU

Q: And the “ka” value (CD70 ECD)?
A: 11700 M⁻¹ s⁻¹

Q: What about the “kd” value (CD70 ECD) of the same molecule?
A: 0.00105 s⁻¹

Q: And the “Retention time” value [2]?
A: 8.81 min

Q: And the “absolute amount … vs parent antibody 69A7” value (786-O cells)?
A: higher absolute amount of antibody internalized into cell than the parent antibody 69A7

Q: What about the “cross binding activity to the cyno-antigen” value [3] of the same molecule?
A: better cross binding activity to the cyno-antigen than antibody 69A7
